Measurements taken from PMC6100724, “Proteome‐wide analysis of phospho‐regulated PDZ domain interactions” (Molecular Systems Biology, 2018).

Tests used:
[1] = target: FITC-HTNETEL, phosphomimetic (p-1) MCC peptide (human); assay: MST; FITC-labeled peptide fixed at 25-50 nM, DLG1 PDZ2 titrated (1:1 dilution series); 50 mM Tris-HCl pH 7.4, 0.1% Tween-20; KD from thermophoresis and T-Jump signal; n = 3
[2] = target: FITC-…, phosphomimetic (p-6) TANC1 peptide (human); assay: as above
[3] = target: Scribble PDZ1 (human, aa 719-829) (human) (UniProt Q14160); assay: ITC; iTC200, 25°C, 20 mM HEPES pH 7.4; protein 50-100 µM in the cell, 0.64-3 mM peptide in the syringe; single-site fit, stoichiometry fixed to 0.8-1.1; triplicate
Chain of Scribble PDZ1 (human, aa 719-829) (human) (Q14160 719-829): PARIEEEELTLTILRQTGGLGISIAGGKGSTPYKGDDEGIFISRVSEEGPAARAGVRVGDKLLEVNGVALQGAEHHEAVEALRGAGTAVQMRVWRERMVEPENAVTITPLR

Scribble PDZ1, 719-829 = Scribble PDZ1, 719-829 (UniProt Q14160); assay: ITC; conditions: reference: unphosphorylated …; sites S730
Chain of Scribble PDZ1, 719-829 (Q14160 whole entry, looked up, tested part not stated): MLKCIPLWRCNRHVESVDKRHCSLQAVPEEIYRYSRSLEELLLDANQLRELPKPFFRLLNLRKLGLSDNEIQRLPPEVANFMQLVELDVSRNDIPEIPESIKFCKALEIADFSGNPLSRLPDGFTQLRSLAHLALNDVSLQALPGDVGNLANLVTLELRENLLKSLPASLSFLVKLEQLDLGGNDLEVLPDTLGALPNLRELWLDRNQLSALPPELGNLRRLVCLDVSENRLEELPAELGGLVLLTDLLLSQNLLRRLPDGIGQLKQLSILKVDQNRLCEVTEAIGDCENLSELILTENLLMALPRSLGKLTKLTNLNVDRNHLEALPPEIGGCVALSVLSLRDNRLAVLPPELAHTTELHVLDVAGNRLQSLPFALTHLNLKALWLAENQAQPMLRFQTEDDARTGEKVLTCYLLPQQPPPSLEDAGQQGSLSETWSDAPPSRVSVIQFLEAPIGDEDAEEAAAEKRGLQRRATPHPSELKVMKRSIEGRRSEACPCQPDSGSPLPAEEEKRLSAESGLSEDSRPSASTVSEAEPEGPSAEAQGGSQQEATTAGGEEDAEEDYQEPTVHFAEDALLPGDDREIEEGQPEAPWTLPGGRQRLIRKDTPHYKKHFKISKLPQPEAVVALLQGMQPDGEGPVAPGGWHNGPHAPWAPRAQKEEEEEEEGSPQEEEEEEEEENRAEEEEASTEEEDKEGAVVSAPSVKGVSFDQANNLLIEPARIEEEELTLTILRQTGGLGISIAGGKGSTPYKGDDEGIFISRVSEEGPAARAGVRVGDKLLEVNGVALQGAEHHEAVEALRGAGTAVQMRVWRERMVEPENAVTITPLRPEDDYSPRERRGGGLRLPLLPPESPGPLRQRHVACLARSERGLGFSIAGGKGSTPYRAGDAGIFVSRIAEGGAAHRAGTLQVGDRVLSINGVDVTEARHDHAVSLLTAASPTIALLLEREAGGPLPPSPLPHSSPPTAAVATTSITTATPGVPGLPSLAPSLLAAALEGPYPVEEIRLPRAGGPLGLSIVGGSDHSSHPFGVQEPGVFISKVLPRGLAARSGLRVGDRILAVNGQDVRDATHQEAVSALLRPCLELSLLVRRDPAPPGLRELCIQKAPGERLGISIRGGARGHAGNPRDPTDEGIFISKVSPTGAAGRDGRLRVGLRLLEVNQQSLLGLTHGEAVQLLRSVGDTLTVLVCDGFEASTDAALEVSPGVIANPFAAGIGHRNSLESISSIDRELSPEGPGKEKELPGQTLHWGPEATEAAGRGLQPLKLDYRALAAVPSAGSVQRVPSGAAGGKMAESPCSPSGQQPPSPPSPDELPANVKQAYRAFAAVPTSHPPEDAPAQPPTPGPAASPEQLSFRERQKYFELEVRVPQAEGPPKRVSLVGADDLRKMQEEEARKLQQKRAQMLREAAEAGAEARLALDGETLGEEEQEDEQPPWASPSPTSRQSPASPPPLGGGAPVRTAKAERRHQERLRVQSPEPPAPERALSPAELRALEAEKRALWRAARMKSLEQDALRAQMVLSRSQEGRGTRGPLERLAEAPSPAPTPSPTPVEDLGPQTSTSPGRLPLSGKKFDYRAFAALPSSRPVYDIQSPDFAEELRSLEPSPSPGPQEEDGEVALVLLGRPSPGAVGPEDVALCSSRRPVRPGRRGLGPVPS

Chain of DLG1 PDZ2 (human DLG1 PDZ2 aa 311-407) (Q12959 311-407): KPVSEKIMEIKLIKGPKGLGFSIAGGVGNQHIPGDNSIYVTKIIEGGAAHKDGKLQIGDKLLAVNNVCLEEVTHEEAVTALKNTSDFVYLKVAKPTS

Substance: DLG1 PDZ2 (human DLG1 PDZ2 aa 311-407) (from UniProt Q12959 311-407) (domain or fragment)
- Kd [1]: 21 µM
- Kd [2]: 5.1 µM

Substance: MAPK12 peptide … (unphosphorylated)
- Kd [3]: 1.2 µM

Substance: RPS6KA2 C-terminal 9 residues (from UniProt Q15349) MKRLTpSTRL
- fold change (Scribble PDZ1, 719-829): stronger
